Measured values reported in the supplement of paper PMC9170038.

Assays:
MS2 coat protein = assay: apparent KD of MS2 coat protein; higher = weaker reporter binding; details: Eterna round: R107
Description: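 RNA-MaP round R107: designed RNA switches with theophylline, tryptophan, arginine or FMN aptamers are transcribed on-chip within common flanks. They are titrated with SNAP-549-labelled MS2 coat protein in RNA-MaP buffer (100 mM Tris pH 7.5, 80 mM KCl, 4 mM MgCl2), without ligand or with the indicated ligand. Median apparent KD per design.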

[1] = tested on: K4 kissing-loop RNA reporter; assay: apparent KD of K4 kissing-loop reporter; higher = weaker reporter binding; details: Eterna round: R107;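 also: bound reporter read as fluorescence of individual clusters on recovered sequencing chips by microscopy, with normalized cluster intensities fitted with a binding model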
Description: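 RNA-MaP round R107: designed RNA switches with theophylline, tryptophan, arginine or FMN aptamers are transcribed on-chip within common flanks. They are titrated with a labelled K4 kissing-loop RNA reporter in RNA-MaP buffer (100 mM Tris pH 7.5, 80 mM KCl, 4 mM MgCl2), without ligand or with the indicated ligand. Median apparent KD per design.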

[2] = input ligand: theophylline 20 uM
[3] = input ligand: theophylline 2 mM
[4] = input ligand: tryptophan 2.4 mM

Sequence	apparent KD of MS2 coat protein (MS2 coat protein; input ligand: arginine 13.2 mM)	apparent KD of MS2 coat protein (MS2 coat protein; input ligand: none)	apparent KD of MS2 coat protein (MS2 coat protein; [2])	apparent KD of MS2 coat protein (MS2 coat protein; [3])	apparent KD of MS2 coat protein (MS2 coat protein; [4])	apparent KD of K4 kissing-loop reporter ([1]; input ligand: FMN 200 uM)	apparent KD of K4 kissing-loop reporter ([1]; input ligand: arginine 13.2 mM)	apparent KD of K4 kissing-loop reporter ([1]; input ligand: none)	apparent KD of K4 kissing-loop reporter [1, 2]	apparent KD of K4 kissing-loop reporter [1, 4]
AAAAGUGGGUCAAUUAUUUAAACUUCAGAAGGAGCGUGAUGUUUCACAGGUAGGUCGCUGAUAACAUGAGGAUCACCCAUGUAUU [JR_ExcArginiA_Sub007]	30.8 nM	47.4 nM	59.8 nM	54.4 nM	47 nM	–	–	–	–	–
AAAAUAAAACGUGCAAAAUCCUAAUGUGAAGGAGCGCACGAAAGUGCAGGUAGGUCGCACAUGAGGAUCACCCAUGUAGCACGAA [MAT - Exclusion Arginine A - Mod of Eli - D1]	60.1 nM	300 nM	221 nM	367 nM	230 nM	–	–	–	–	–
AAAAUAAAUAAAACACGUAACAUGAAGGAUACCAGACCGGAAACGGUCCCUUGGCAGCCUCUACAUGAGGAUCACCCAUGUCGUG [Mat - Same State Theophlline A - Mod of Eli - D18]	110 nM	–	141 nM	–	258 nM	–	–	–	–	–
AAAAUAAAUAAAACGGGUAACAUGAAGGAUACCAGCCAGGAAACUGGCCCUUGGCAGCCUCUACAUGAGGAUCACCCAUGUCCCG [Mat - Same State Theophlline A - Mod of Eli - D14]	169 nM	–	142 nM	–	454 nM	–	–	–	–	–
AAACAUGAGGAUCACCCAUGUUCUCGUGUCCGAGGACCGGUACGGCCGCCACUCGGUUCUCGCGAGGAUGGUCAAAGACUAUCCA [Omei Trp A SS B v6]	22.9 nM	45.1 nM	53.6 nM	46.6 nM	29 nM	–	–	–	–	–
AAACGCCACGGAAGGAGCGACAUGAGGAUCACCCAUGUAGAUUUGGCGGAUGCACCCUCCUGUCAGGUAGGUCGCCGUGCGCUAA [XArg-B24]	51.8 nM	61 nM	90.2 nM	99.9 nM	100 nM	–	–	–	–	–
AAACGUUGCUCAGAUACCAGACAUGAGGAUCACCCAUGUACCAAGGUAAAGAAAUAACGUGUCCCUUGGCAGCUGAGCAACGAAA [MAT - Exclusion Theophlline B - Mod of Eli - D11]	13.8 nM	–	13.8 nM	–	11.1 nM	–	–	–	–	–
AAACUAACGAGAGGAAACCUCGAGGGUGAUACCAGCACAUAAGGGUGCCCUUGGCAGCACCGACGUACAUGAGGAUCACCCAUGU [Gexegees]	56.6 nM	–	154 nM	–	169 nM	–	–	–	–	–
AAAGAUUCCUGAACGCCGCAUACCGAUGAUACCAGCCAACGGAAAGGCCCUUGGCAGCAUUAAACAUGAGGAUCACCCAUGUCUA [theeternabot_exclusion_MS2_Theo_A_43]	11.4 nM	–	15 nM	–	12.1 nM	–	–	–	–	–
AAAGGUCGCAAUAAAUCUCCUACAUGUGAAGGAGCGCGCGAAAGCGCAGGUAGGUCGCACAUGAGGAUCACCCAUGUGAGCGACC [MAT - Exclusion Arginine A - Mod of Eli - D3]	9.41 nM	11.5 nM	14.5 nM	13.1 nM	10.8 nM	–	–	–	–	–
AAAUAAAUACAUGAGGAUCACCCAUGUGAAGGAGCGCCCGUUAGGGCAGGUAGGUCGCACAUGAAUAACUCCGUGCAAAAGCACA [ArgEX 18 #OpenEnded]	20.9 nM	29 nM	38.8 nM	37.1 nM	31.3 nM	–	–	–	–	–
AACAACAAGGGAAGGAGCGCGAAUAAUAGACAUGAGGAUCACCCAUGUAUCAUGGGAUUAACGCAGGUAGGUCGCCCACAAACAA [#07 Exclusion - Arginine B]	60.4 nM	127 nM	155 nM	152 nM	71.7 nM	–	–	–	–	–
AACAUACAAUAUUAGGUGGAUAUAAGGCGGCGAGGACCGGUACGGCCGCCACUCGCGUACAUGAGGAUCACCCAUGUCUGAAACU [Same State - Tryptophan A (Freestyle 4)]	16.6 nM	–	26.8 nM	24.3 nM	–	–	–	–	–	–
AACAUGAGGAUCACCCAUGUUUGCUAUGAAGGAGCGUCGGAAAUGACAGGUAGGUCGCAUGGUAGACCGAGUAUUAUCUGUAUGG [EAA NP+V+V2 #11]	14.9 nM	9.74 nM	19.5 nM	10.7 nM	12.1 nM	–	–	–	–	–
AACUGGACCAGUGAUACCAGAGACAUGAGGAUCACCCAUGUACAUGAGGAUCACCCAUGUCUCCCUUGGCAGCACAGCAGGGAGC [Exclusion Theophylline B Gf12]	66 nM	117 nM	109 nM	720 nM	119 nM	–	–	–	–	–
AAUAACUUGAGGAUCACCCAAGUAAAAGAUACCAGAGUGAUGAUCCUCCCUUGGCAGCUUAACGCUGAUUGAUUACAAUCAGCGA	63.2 nM	62.3 nM	182 nM	121 nM	45.8 nM	–	–	–	–	–
AAUACCGGUCCUCGAAGGUGAUCCUCAUAACGAGGACCGGUACGGCCGCCACUCGAUAACAUGAGGAUCACCCAUGUAAUAAUAA [|T'-M'-Trp-Ms2|_Design6]	56.1 nM	–	175 nM	235 nM	–	–	–	–	–	–
AAUAUAAUAUAAAUAAUAAUAAUAUCUGAUACCAGACUCUCAUGUGUCCCUUGGCAGCAGUAACAUGAGGAUCACCCAUGUAAUA [JR_Nu_SSTheophyA_Sub027]	33 nM	62.7 nM	46.7 nM	16.2 nM	52 nM	–	–	–	–	–
AAUAUAUAUCACGAACUGUGGUGUAUGUUGCGAGGACCGGUACGGCCGCCACUCGGCCGGUGGUACAUGAGGAUCACCCAUGUUG [XTryp A #9]	35.3 nM	25.3 nM	48.7 nM	40.1 nM	28.2 nM	–	–	–	–	–

Sequence	apparent KD of MS2 coat protein (MS2 coat protein; input ligand: arginine 13.2 mM)	apparent KD of MS2 coat protein (MS2 coat protein; input ligand: none)	apparent KD of MS2 coat protein (MS2 coat protein; [2])	apparent KD of MS2 coat protein (MS2 coat protein; [3])	apparent KD of MS2 coat protein (MS2 coat protein; [4])	apparent KD of K4 kissing-loop reporter ([1]; input ligand: FMN 200 uM)	apparent KD of K4 kissing-loop reporter ([1]; input ligand: arginine 13.2 mM)	apparent KD of K4 kissing-loop reporter ([1]; input ligand: none)	apparent KD of K4 kissing-loop reporter [1, 2]	apparent KD of K4 kissing-loop reporter [1, 4]
AAUGAUGCGAUCUACAGUCGAGGAUUCGAUACCAGCAACGGGCGUUGCCCUUGGCAGCGAGCUACAUGAGGAUCACCCAUGUUAC [theeternabot_exclusion_MS2_Theo_A_45]	16.8 nM	–	25.5 nM	–	19.4 nM	–	–	–	–	–
UUUAGGAGCGGUGUUGAUUAGGGAGCGGAAGGAGCGCCGAUUAUGGCAGGUAGGUCGCCGGAAUGUAGUGAUGUUGCAUAGAGGG [ExArgA.V]	–	–	–	–	–	214 nM	186 nM	185 nM	154 nM	166 nM
UUUAUAAAGUCGGCCGCCACUGGAUUUAUGUUUGUUUCGUCUGGAUCAAAGUGAUGUUUUGAGUCCAGGACCGGGACAUUUGUUA [whbob_Ex_Tryp_B_w38]	–	–	–	–	–	88.9 nM	74.8 nM	81.2 nM	73.5 nM	113 nM
UUUAUAUUGUCGGCCGCCACUGGAUUAAUAUUUGUAUAAUCUAGUUCAAAGUGAUGUUUUGAGUCCAGGACCGGGACAUUUGAUA [JR_Nu_ExcTryptoB_Sub029]	–	–	–	–	–	622 nM	501 nM	624 nM	575 nM	491 nM
UUUCGGCUCUGAGGAUAUUCGGACAAAUAUAGUGAUGUUGUAUAAGGAGGAGGGUGUUGGCAGUGAGGAGAAGGCAGAGGAGGAU [#07 K4 FMN B Exclusion]	–	–	–	–	–	376 nM	208 nM	397 nM	358 nM	214 nM
UUUCGGUUCUGAGGAUAUUCGGACAAAUAUAGUGAUGUUGUAUAAGGAGGAGGGUGUUGGCAGUGCGGAGAAGGCAGACCACGAU [ExFMNB.X]	–	–	–	–	–	869 nM	720 nM	747 nM	575 nM	621 nM
UUUCGUCUCUGAGGAUAUCAGACGAGAGUGAUGUUCUCCCAAAGCCCAGUGAUGUUGGAUGCUAUCUGAGAAGGCAGUGGGCGAA [Same State FMN B GF 12]	–	–	–	–	–	227 nM	584 nM	554 nM	634 nM	508 nM
UUUCGUUGAAGUGAUACCAGACUUGAAAGUGAUGUUUUCCAAUAAUUUAAAUUUUUAGCUGUCCCUUGGCAGCACAGUUUAUUUA [JR_Nu_ExcTheophyB_Sub025]	–	–	–	–	–	210 nM	363 nM	275 nM	401 nM	181 nM
UUUCUUUUUUUGAUGUUUUUUGUAUAAUGGCAGGAUAUCGUAGAUGCGAGAAGGGCUUUUAUGCGUUAUGAGUGAUGUUUGUAGG [aaxazvmullin]	–	–	–	–	–	324 nM	270 nM	320 nM	272 nM	256 nM
UUUGGUUUCUCGGCCGCCACUCGUGGGAAAUGGGCCUCAGGGAUAUAGUGAUGUUAUGUAAAGAAGAGGACCGGGAGAAGGAAGG [ExTryptoB.Dl]	–	–	–	–	–	300 nM	253 nM	306 nM	208 nM	233 nM
UUUGUAUAGGGAAGGAGCGUGAAUGAGAAAGAAUAUAGUGAUGUUAUAUAGAAGAAAGAAUCACAGGUAGGUCGCCCGGAGGAGG [SSArgB.G]	–	–	–	–	–	484 nM	363 nM	371 nM	482 nM	337 nM
UUUGUAUAGGGAAGGAGCGUGAAUGAUAAUGAAUAUAGUGAUGUUAUAUAUAAGAAAGAAUCACAGGUAGGUCGCCCGGAGGAGG [SSArgB.J]	–	–	–	–	–	612 nM	410 nM	668 nM	1350 nM	428 nM
UUUUAAAUGUCUGAUACCAGAGAAAAUAUAUGUAGUGAUGUUAUAUACAAAUUGAAUAAGCUCCCUUGGCAGCAGUAUUAAUUUU [AstrosExc-TheB#11]	–	–	–	–	–	493 nM	643 nM	713 nM	662 nM	493 nM
UUUUAAAUGUCUGAUACCAGAGAAAAUUUAUGUAGUGAUGUUAUAUACAAAAUAAAUAAGCUCCCUUGGCAGCAGUAUUAAUUUU [AstrosExc-TheB#7]	–	–	–	–	–	465 nM	449 nM	465 nM	357 nM	442 nM
UUUUAUUAAUACUUCUAGUGAUGUUAGAUACGAGGACCGGUACGGCCGCCACUCGCUUAUUGGUUUAUAUAUUUUAUAUUCUUUA [JR_SSTryptoA_Sub014]	–	–	–	–	–	327 nM	362 nM	342 nM	369 nM	281 nM
UUUUGGUUCUGAGGAUAUUCGAAGAAAUAUAGUGAUGUUAUAUAAGGAGGAGGAUGUAGGGAGGAAGGAGAAGGCAGAAGAGGAG [ExFMNB.J]	–	–	–	–	–	1040 nM	915 nM	880 nM	377 nM	480 nM
UUUUUGGAGAAUUAUAGUGAUGUUAUGAAGAAGGAUAUCUAAAGAUGGAGAAGGUUUAAUAGUUAAGGGAUGGAGGGUGGGUGGG [ExFMNA.P]	–	–	–	–	–	282 nM	155 nM	293 nM	221 nM	194 nM
UUUUUGGAGAAUUAUAGUGAUGUUAUGAAGGAGGAUAUCUGGAGAUGGAGAAGGCCUAGUGGCUCAGGGAUGGAGGGUGGGUGGG [ExFMNA.Y]	–	–	–	–	–	704 nM	411 nM	487 nM	655 nM	301 nM
